Target: CLDmut (CD4-linker-DC-SIGN fusion protein with a linker of 8 Gly4Ser repeats and the Cys-to-Ser back (human) (UniProt P01730))
Assay: BLI

## trimeric HIV-1 CN54 gp140 (domain or fragment)
  Kd: 0.39 nM
  koff: 1.62e-05 s⁻¹
  kon: 41100 M⁻¹ s⁻¹

Source: publication PMC9323411
